# Laboratory results taken from the RNAGym collection of RNA variant scans (doi:10.1073/pnas.2313332121).
# B1: TPR t1 (parent)
# chain: GACCAAUCUGCCCUCAGAGCUCGAGAACAUCUUCGGAUGCAGAGGAGGCAGGCUUCGGUGGCGCGAUAGCGCCAACGUCCUCAACCUCCAAUGCAUCCCACCACAUGAUGAUGCCUGAAGAGCCUUGGUUUUUUG
# Variants of: B1
# Experiment: polymerase ribozyme fitness, log enrichment relative to wild type (log ratio); higher = more active; in vitro selection for triplet polymerase activity
# Outline: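 Mutant libraries were PCR-built and transcribed for each subunit of a heterodimeric triplet polymerase ribozyme and selected for one round in triplicate at −7 °C, frozen, before gel excision of extended constructs and streptavidin-bead capture. Input and output libraries were Illumina-sequenced, keeping genotypes with ≥10 input reads and ≥1 read per output. Fitness is a logarithmic ratio of genotype to wild-type enrichment, in base 2, using inverse-variance-weighted replicate averages.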
row,Variant,polymerase ribozyme fitness (log ratio)
1,GACCAAUCUGCCCUCAGAGCUCGAGAACACCUUCGGAUGCAUAGGAGGCAGGCUUCGGUGGCGCGAUAGCGCCAACGUCCUCAACCUCCAAUGCAUCCCACCACAUGAUGAUGCCUGAAGAGCCUUGGUUUUUUG,-3.85
2,GACCAAUCUGCCCUCAGAGCUCGAGAACUUCUUCGGAUGCAGAGGAGGCAGGCUUCGGUGGCGCGAUAUCGCCAACGUCCUCAACCUCCAAUGCAUCCCACCACAUGAUGAUGCCUGAAUAGCCUUGGUUUUUUG,-0.561
3,GACCAAUCUGCCCUCAGAGCUCGAGAACUUCUUCGGAUGCAGAGGAGGCAGGCUUCGGUGGCGCGAUACCGCCAACGUCCUCAACCUCCAAUGCAUCUCACCACAUGAUGAUCCCUGAAGAGCCUUGGUUUUUUG,-4.71
4,GACCAAUCUGCCCUCAGAGCUCGAGAACACCUUCGGAUGCAGAGGAGGCAGGCUUCGGUGGCGCGAUAGCGCCAACGGCCUCAACCUCCAAUGCAUCCCACCACAUGAUGAUGCCUGAAGAGCCUUGGUUUUUUG,-3.78
5,GACCAAUCUGCCCUCAGAGCUCGAGAACAGCUUGGGAUGCAGAGGAGGCAGGCUUAGGUGGCGCGAUAGCGCCAACGUCCUCAACCUCCAAUGCAUCCCACCACAUGAAGCUGCCUUAAGAGCCUUGGUUCCUUG,-6.83
6,GACCAAUCUGCCCUCAGAGCUCGAGAACAACUUCGGAUGCAGAGGAGCCAGGCUUCGGUGGCUCGAUAGCGCCAACGUCCUCAACCUCCAAUGCAUCCCACCACAUGAUGAUGCCUGAAGAGCAUUGGUUUUUUG,-5.12
7,GACCAAUCUGCCCUCAGAGCUCGAGAACACCUUCGGAUGCAUAGGAGGCAGGCUUCGGUGGCGCGAUAGCGCCAAGGUCCUCAAACUCCAAUGCAUCCCACCACAUGAUGAUGCCUGAAGAAGCUUGGUUUUUUG,-4.17
8,GACCAAUCUGCCCUCAGAGCUCGAGAACACCUUCGGAUGCAGAGGAGGCGGGCUUCGGUGGCGCGAUAGCGCCGACGUCCUCAACCUCCAAUGCAUCCCACCACAUGAUGAUGCCUGAAGAGUCUUGGUUUUUUG,-3.32
9,GACCAAUCUGCCCUCAGAGCUCGAGAACAGCUUCGGAUGCAGAGGAGGGAGGCUUCGGUGGCGCGAUAGCGCCAACGUCGUCAACCUCCAAUGCAUCCCACCACAUGAUGAUGCCUCAAGAGCCUUGGUUUUUUG,-7.34
10,GACCAAUCUGCCCUCAGAGCUCGAGAACUUCUUCGGAGGCAGAGGAGGCAGGCUUCGGUGGCGCGAUAGCGCCAACGUCCUCAACCUUCAAUGCAUCCCACCACAUGAUGAUGCCUGAAGAGCCUUGGUUUUUUG,-3.31
11,GACCAAUCUGCCCUCAGAGCUCGAGAACAACUUCGGAUUCAGAGGAGGCAGGCUUCGGUGGCGCGAUAGCGCCAACGUCCUCAACCUCCAAUGCAUCCCAACACAUGAUGUUGCCUGAGGAGGCUUGGUUUUUUG,-6.64
12,GACCAAUCUGCCCUCAGAGCUCGAGAACUUCUUCGGAUGCAGAGGAGGCAGGCUUCGGUGGCGCGAUAGCGCCAACGUCCUCAACCUCCAAGGCAUCCCACCACAUGAAGAUGCUUGAAGAGCCUUGGUAUUUUG,-5.3
13,GACCAAUCUGCCCUCAGAGCUCGAGAACACCUUCGGAUGCAGAGGAGGCAGGCUUCGGUGGCGCGAUAGCUCCAACGUCCUCAACCUCCAAUGCAUCCCACCACAUGAUGAUGCCUGAAGAGCCUUGGUUUUUUG,-3.2
14,GACCAAUCUGCCCUCAGAGCUCGAGAACUUCUUCGGAUGCAGAGGAGUCAGGCUUCGGUGGCGCGAUAGGGCCAACGUCCUCAACCUCCAAUGCAUCCCACCACAUGAUGAUGCCUGAAGAGUCUUGGUUUUUUG,-5.55
15,GACCAAUCUGCCCUCAGAGCUCGAGAACUUCCUCGGAUGCAGAGGAGGCAGGCUUCGGUGCCGCGAUAGGGCCAACGUCCUCAACCUCCAAUGCAUCACACCACAUGAUGAUGUCUGAAGAGCCUUGGUUUUUUG,-5.96
16,GACCAAUCUGCCCUCAGAGCUCGAGAACUUCUUCGGAUGCAGAGGAGGCAGGCUUCGGUGUCGCGAUAGCGCCAACGUCCUCAACCUCCAAUGCAUCCCACCACAGGAUGAUGCCUGAAGAGCCUUGGUUUUUUG,-1.91
17,GACCAAUCUGCCCUCAGAGCUCGAGAACAGCUUCGGAUGCAGCGGAGGCAGGCUUCGGUGGCGCGAUAGCGCCAACGUCCUCAACCUCCAAUGCAUCCCACCAAAUGAUGUUGCCUGAAGAGCCUUGGUUUUUUG,-6.22
18,GACCAAUCUGCCCUCAGAGCUCGAGAACUUCUUCGGAUGCAGAGGAGUCAGGCUUCGGUGGCGCGAUAGCGCGAACGUCCUCAACCUCCAAUGCAUCCCACCACAUGAUGAAGCCUGAAGAGCCUUGGUUUUUUG,-0.987
19,GACCAAUCUGCCCUCAGAGCUCGAGAACACCUUCGGAUGCAGAGGAGGCAGGCUUCGGUGGCGCGAUAGCGCCAACGACCUCAACCUCCAAUGCAUCCCACCACACGAUGAUGCCUGAAGUGCCUUGGUUUUUUG,-2.15
20,GACCAAUCUGCCCUCAGAGCUCGAGAACACCUUCGGCUGCAGAGGAGGCAGGCUUCGGUGGCGCGAUAGCGCCAACGUCCUCAACCUCCAAUGCAUCCCACCACAUGAUGAUGCCUGAAGAGCCUUGGUUUUUUG,-3.86
21,GACCAAUCUGCCCUCAGAGCUCGAGAACAGCUUCGGAUGCAGAGGAGGCAGGCUUCGGUGGCGCGAUAGCGCCAACGUCCUCAACCUCCAAUGCAUCCCACCACAUGAUGAUGCAUGAAGAGCCUUGGUUUUUUG,-5.72
